Values belong to the binder of their own block, whether it stands above or below them.
Legend:
[1] = target: T1, Cdc4 (budding yeast, UniProt P07834 1-779); assay: anti-MYC immunoprecipitation from yeast lysate, immunoblot
T1 construct: Endogenous protein in yeast lysates, detected with anti-Cdc4 antibodies; also called endogenous Cdc4
T1 sequence: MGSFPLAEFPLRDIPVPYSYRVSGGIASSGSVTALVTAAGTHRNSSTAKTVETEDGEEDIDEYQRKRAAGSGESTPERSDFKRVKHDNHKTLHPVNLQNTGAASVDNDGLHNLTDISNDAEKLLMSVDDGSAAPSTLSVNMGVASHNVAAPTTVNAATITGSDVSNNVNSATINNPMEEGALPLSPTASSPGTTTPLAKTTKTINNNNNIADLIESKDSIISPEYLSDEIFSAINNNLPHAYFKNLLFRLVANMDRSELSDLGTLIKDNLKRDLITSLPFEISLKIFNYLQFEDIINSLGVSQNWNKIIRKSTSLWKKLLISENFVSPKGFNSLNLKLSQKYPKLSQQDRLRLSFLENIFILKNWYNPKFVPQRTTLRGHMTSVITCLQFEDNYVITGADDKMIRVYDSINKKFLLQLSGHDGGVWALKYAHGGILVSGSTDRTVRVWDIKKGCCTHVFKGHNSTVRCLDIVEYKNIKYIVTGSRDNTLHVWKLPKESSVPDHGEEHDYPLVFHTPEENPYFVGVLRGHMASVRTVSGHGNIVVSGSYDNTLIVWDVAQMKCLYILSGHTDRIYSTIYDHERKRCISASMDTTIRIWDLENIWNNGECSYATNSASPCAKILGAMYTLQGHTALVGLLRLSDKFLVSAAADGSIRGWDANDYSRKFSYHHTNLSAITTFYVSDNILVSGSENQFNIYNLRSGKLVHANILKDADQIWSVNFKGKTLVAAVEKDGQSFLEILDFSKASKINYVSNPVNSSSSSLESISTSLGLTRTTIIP

[2] = target: T2, Met30 (yeast, UniProt P39014 1-640); assay: as above
T2 construct: Endogenous protein in yeast lysates, detected with anti-Met30 antibodies; also called endogenous Met30
T2 sequence: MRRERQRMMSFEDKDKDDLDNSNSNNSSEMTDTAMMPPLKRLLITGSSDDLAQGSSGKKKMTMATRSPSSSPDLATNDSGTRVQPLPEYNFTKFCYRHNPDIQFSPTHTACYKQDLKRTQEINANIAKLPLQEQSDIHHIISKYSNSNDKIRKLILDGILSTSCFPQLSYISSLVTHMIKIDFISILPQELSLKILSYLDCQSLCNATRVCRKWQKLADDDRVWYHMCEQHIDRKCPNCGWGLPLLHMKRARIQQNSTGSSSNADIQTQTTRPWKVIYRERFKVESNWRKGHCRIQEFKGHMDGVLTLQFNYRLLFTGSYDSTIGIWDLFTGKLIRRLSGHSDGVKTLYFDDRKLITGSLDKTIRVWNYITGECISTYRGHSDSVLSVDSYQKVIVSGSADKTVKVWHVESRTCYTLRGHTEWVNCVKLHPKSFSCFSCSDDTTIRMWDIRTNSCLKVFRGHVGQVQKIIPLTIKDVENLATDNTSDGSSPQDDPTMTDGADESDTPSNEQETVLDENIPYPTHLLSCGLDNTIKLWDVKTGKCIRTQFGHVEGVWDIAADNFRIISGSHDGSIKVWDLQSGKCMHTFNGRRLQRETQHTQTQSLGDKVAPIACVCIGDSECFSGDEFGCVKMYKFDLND

[3] = target: T3, Grr1 (budding yeast, UniProt P24814 1-1151); assay: as above
T3 construct: Endogenous protein in yeast lysates, detected with anti-Grr1 antibodies; also called endogenous Grr1
T3 sequence: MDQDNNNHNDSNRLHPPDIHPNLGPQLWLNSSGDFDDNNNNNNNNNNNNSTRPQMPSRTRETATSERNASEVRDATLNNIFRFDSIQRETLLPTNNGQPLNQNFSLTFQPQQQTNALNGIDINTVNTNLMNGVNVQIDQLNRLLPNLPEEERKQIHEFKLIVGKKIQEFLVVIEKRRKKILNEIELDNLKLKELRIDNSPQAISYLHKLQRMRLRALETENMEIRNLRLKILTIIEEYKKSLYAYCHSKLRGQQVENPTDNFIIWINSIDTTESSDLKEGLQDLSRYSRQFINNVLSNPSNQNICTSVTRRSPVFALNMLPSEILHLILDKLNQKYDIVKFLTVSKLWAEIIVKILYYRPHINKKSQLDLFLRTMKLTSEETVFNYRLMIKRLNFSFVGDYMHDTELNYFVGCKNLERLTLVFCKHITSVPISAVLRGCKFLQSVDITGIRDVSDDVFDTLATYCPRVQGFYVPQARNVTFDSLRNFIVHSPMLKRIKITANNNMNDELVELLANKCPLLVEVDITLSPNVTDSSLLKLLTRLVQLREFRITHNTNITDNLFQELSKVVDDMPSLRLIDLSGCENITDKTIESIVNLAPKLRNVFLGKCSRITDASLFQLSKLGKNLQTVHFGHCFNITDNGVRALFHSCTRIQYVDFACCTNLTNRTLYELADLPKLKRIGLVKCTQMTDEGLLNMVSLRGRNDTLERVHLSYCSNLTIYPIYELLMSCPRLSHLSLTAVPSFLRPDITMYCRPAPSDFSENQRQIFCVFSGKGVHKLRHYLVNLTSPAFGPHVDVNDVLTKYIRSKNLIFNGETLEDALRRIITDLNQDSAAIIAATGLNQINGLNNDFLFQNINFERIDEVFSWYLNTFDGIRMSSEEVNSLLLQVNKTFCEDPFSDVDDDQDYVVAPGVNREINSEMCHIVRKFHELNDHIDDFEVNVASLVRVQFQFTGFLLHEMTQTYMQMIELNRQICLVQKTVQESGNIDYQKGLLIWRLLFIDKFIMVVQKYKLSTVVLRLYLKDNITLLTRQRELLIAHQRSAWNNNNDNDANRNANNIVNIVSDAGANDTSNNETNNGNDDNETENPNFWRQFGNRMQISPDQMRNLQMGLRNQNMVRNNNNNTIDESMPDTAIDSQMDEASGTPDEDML

[4] = target: T4, Gal4^AD-Cdc4 isolates (budding yeast, UniProt P07834 1-779, limits assumed); assay: yeast two-hybrid
T4 construct: Library clones; all contained the F-box; also called Cdc4 two hybrid isolates; full length Cdc4 in the two hybrid system
T4 sequence: T1 sequence

[5] = target: T5, Gal4^AD-Met30 isolates (yeast, UniProt P39014 1-640, limits assumed); assay: yeast two-hybrid
T5 construct: Library clones; all contained the F-box; also called Met30 two hybrid isolates; full length Met30 in the two hybrid system
T5 sequence: T2 sequence

- binding result [1]: no binding
- binding result [2]: no binding
- binding result [3]: no binding
B1: Cdc53^Δ9-280 (MYC-tagged) (other, not shown: small tags and cut ends)
chain: MSETLPRSMALNKVLITDHIEKLENEFVVLLDARDIEKITSLYALIRRDFTLIPRMASVFENYVKKTGENEISSLLAMHKHNIMKNENANPKKLALMTAHSLSPKDYIKKLLEVHDIFSKIFNESFPDDIPLAKALDNACGAFININEFALPAGSPKSATSKTSEMLAKYSDILLKKATKPEVASDMSDEDIITIFKYLTDKDAFETHYRRLFAKRLIHGTSTSAEDEENIIQRLQAANSMEYTGKITKMFQDIRLSKILEDDFAVALKNEPDYSKAKYPDLQPFVLAENMWPFSYQEVEFKLPKELVPSHEKLKESYSQKHNGRILKWLWPLCRGELKADIGKPGRMPFNFTVTLFQMAILLLYNDADVLTLENIQEGTSLTIQHIAAAMVPFIKFKLIQQVPPGLDALVKPETQFKLSRPYKALKTNINFASGVKNDILQSLSGGGHDNHGNKLGNKRLTEDERIEKELNTERQIFLEACIVRIMKAKRNLPHTTLVNECIAQSHQRFNAKVSMVKRAIDSLIQKGYLQRGDDGESYAYLA
notes: Deletion built with natural and engineered restriction sites; also called CDC53^MΔ9-280; pMT1850

- binding result [4]: no binding
- binding result [5]: no binding
B2: Gal4^DBD-Cdc53^ΔN (other, not shown: small tags and cut ends)
chain: MALNKVLITDHIEKLENEFVVLLDARDIEKITSLYALIRRDFTLIPRMASVFENYVKKTGENEISSLLAMHKHNIMKNENANPKKLALMTAHSLSPKDYIKKLLEVHDIFSKIFNESFPDDIPLAKALDNACGAFININEFALPAGSPKSATSKTSEMLAKYSDILLKKATKPEVASDMSDEDIITIFKYLTDKDAFETHYRRLFAKRLIHGTSTSAEDEENIIQRLQAANSMEYTGKITKMFQDIRLSKILEDDFAVALKNEPDYSKAKYPDLQPFVLAENMWPFSYQEVEFKLPKELVPSHEKLKESYSQKHNGRILKWLWPLCRGELKADIGKPGRMPFNFTVTLFQMAILLLYNDADVLTLENIQEGTSLTIQHIAAAMVPFIKFKLIQQVPPGLDALVKPETQFKLSRPYKALKTNINFASGVKNDILQSLSGGGHDNHGNKLGNKRLTEDERIEKELNTERQIFLEACIVRIMKAKRNLPHTTLVNECIAQSHQRFNAKVSMVKRAIDSLIQKGYLQRGDDGESYAYLA
notes: Made by NcoI digestion and religation; also called pMT954; Cdc53 lacking the N-terminal 280 residues

Source: US6426205 (MOUNT SINAI HOSPITAL, dated 2002)
